The experiment addresses human PD-1 protein (Acro biosystems) (human, UniProt Q15116 25-170). Description: SPR.

In general, koff refers to the first-order rate constant of dissociation.

Sequence of human PD-1 protein (Acro biosystems) (Q15116 25-170): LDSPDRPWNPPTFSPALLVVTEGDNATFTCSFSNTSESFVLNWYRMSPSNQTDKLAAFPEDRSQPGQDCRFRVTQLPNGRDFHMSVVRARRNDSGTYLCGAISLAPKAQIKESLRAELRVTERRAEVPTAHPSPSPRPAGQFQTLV

B1: anti-PD-1 Nb C12-Fc (Fc fusion)
chain: QVQLQELGETRCRHGGSLRLSCKVSGYTQRSYCLGWLRQAPGNEREAVAVLQHSGNFRHYADSVQGRFVISQDYTDNTVYLAMNNLKSEDAAMYYCAAVGLRVSQFNYWGQGTQVTVSS
As to B1, the koff is 0.00178 s⁻¹.

The values are drawn from paper PMC9867944 (2023).
